Assay results taken from article PMC4730607, “DNA-binding sequence specificity of DUX4”.

B1: Pitx1-25 (dsDNA)
DNA 1: GGCAGTCTTCTAATTAGTAGTCGGC
DNA 2: GCCGACTACTAATTAGAAGACTGCC
B2: SELEX4 (dsDNA)
DNA 1: GGCAGTCTAATGTTTTATAGTCGGC
DNA 2: GCCGACTATAAAACATTAGACTGCC
B3: DUX4(half) (dsDNA)
DNA 1: GGCAGTCCAGCGTAATCAAGTCGGC
DNA 2: GCCGACTTGATTACGCTGGACTGCC
B4: MALR (dsDNA)
DNA 1: GGCAGTCTAATTGAATCAAGTCGGC
DNA 2: GCCGACTTGATTCAATTAGACTGCC
B5: DUX4(TT) (dsDNA)
DNA 1: GGCAGTCTAATTTAATCAAGTCGGC
DNA 2: GCCGACTTGATTAAATTAGACTGCC
B6: DUX4(mut) (dsDNA)
DNA 1: GGCAGTCGTGAATAATCAAGTCGGC
DNA 2: GCCGACTTGATTATTCACGACTGCC
B7: DUX4(CC) (dsDNA)
DNA 1: GGCAGTCTAATCCAATCAAGTCGGC
DNA 2: GCCGACTTGATTGGATTAGACTGCC
B8: DUX4(TC) (dsDNA)
DNA 1: GGCAGTCTAATTCAATCAAGTCGGC
DNA 2: GCCGACTTGATTGAATTAGACTGCC
B9: SELEX2 (dsDNA)
DNA 1: GGCAGTCTAATTCAATCCAGTCGGC
DNA 2: GCCGACTGGATTGAATTAGACTGCC

Target: T1, DUX4 DNA-binding domain (DUX4-HD, both homeodomains) (UniProt Q9UBX2 19-152)
T1 sequence (Q9UBX2 19-152): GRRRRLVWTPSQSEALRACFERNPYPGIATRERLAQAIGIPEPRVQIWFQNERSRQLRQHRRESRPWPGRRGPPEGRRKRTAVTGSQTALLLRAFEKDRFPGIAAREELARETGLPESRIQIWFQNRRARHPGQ
Assay: EMSA; excess protein; Direct EMSA: 10 uL 100 uM probe + 20 uL 250 uM protein (protein stock in 500 mM NaCl, 20 mM Tris-Cl pH 7.4), 1 h on ice, 3% agarose, EtBr; competition: 10 uL 100 uM competitor, 2 uL 125 uM protein (50% glycerol, 250 mM NaCl, 10 mM Tris-Cl pH 7.4), 2 uL 100 uM FAM-CT, 30 uL total, 1 h on ice
Settings: protein: recombinant; tags: N-terminal His6 removed by TEV (first construct); His-SUMO fusion (later construct); blunt

Binder	binding result
B1	no binding
B2	no binding
B3	no binding
B4	binds

Target: T1, DUX4 DNA-binding domain (DUX4-HD, both …)
Assay: competition; vs FAM-CT; Direct EMSA: 10 uL 100 uM probe + 20 uL 250 uM protein (protein stock in 500 mM NaCl, 20 mM Tris-Cl pH 7.4), 1 h on ice, 3% agarose, EtBr; competition: 10 uL 100 uM competitor, 2 uL 125 uM protein (50% glycerol, 250 mM NaCl, 10 mM Tris-Cl pH 7.4), 2 uL 100 uM FAM-CT, 30 uL total, 1 h on ice
Settings: protein: recombinant; tags: N-terminal His6 removed by TEV (first construct); His-SUMO fusion (later construct); blunt

Binder	binding result
B5	binds
B6	no binding
B7	binds
B8	binds

Target: T1, DUX4 DNA-binding domain (DUX4-HD, both …)
Assay: competition; vs FAM-CT; CT competed best; Direct EMSA: 10 uL 100 uM probe + 20 uL 250 uM protein (protein stock in 500 mM NaCl, 20 mM Tris-Cl pH 7.4), 1 h on ice, 3% agarose, EtBr; competition: 10 uL 100 uM competitor, 2 uL 125 uM protein (50% glycerol, 250 mM NaCl, 10 mM Tris-Cl pH 7.4), 2 uL 100 uM FAM-CT, 30 uL total, 1 h on ice
Settings: protein: recombinant; tags: N-terminal His6 removed by TEV (first construct); His-SUMO fusion (later construct); blunt

Binder	binding result
B9	binds
